According to PMC3530171 (Cell, 2012):

Target: recombinant His-Mdm2 (UniProt P23804 1-489)
Assay: pull-down

Chain of recombinant His-Mdm2 (P23804 whole entry): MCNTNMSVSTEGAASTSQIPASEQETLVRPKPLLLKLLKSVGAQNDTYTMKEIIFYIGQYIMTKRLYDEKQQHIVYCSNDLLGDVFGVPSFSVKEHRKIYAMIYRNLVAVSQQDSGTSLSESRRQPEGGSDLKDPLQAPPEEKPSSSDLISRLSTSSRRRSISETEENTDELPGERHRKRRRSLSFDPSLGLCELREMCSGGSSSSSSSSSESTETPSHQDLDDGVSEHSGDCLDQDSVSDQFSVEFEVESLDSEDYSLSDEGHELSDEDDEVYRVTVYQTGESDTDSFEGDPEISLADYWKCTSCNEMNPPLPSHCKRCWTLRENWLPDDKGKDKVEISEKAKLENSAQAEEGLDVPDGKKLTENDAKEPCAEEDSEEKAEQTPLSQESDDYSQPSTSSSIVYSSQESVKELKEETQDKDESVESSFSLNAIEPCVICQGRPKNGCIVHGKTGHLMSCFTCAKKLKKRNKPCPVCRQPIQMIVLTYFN

- stoichiometry N: ~1
B1: recombinant GST-EF1α (natural protein)
chain: GKEKTHINIVVIGHVDSGKSTTTGHLIYKCGGIDKRTIEKFEKEAAEMGKGSFKYAWVLDKLKAERERGITIDISLWKFETSKYYVTIIDAPGHRDFIKNMITGTSQADCAVLIVAAGVGEFEAGISKNGQTREHALLAYTLGVKQLIVGVNKMDSTEPPYSQKRYEEIVKEVSTYIKKIGYNPDTVAFVPISGWNGDNMLEPSANMPWFKGWKVTRKDGNASGTTLLEALDCILPPTRPTDKPLRLPLQDVYKIGGIGTVPVGRVETGVLKPGMVVTFAPVNVTTEVKSVEMHHEALSEALPGDNVGFNVKNVSVKDVRRGNVAGDSKNDPPMEAAGFTAQVIILNHPGQISAGYAPVLDCHTAHIACKFAELKEKIDRRSGKKLEDGPKFLKSGDAAIVDMVPGKPMCVESFSDYPPLGRFAVRDMRQTVAVGVIKAVDKKAAGAGKVTKSAQKAQKAK
